This data set deals with anti-BCR-ABL 1A-2A-3B/VP16 fusion (synthetic construct). The data set is described as follows: cell_activity; C3H10T1/2 cells. From the text:
Having established DNA discrimination in vitro, the inventors wished to test whether the anti-BCR-ABL peptide was capable of site-specific DNA-binding in vivo. The peptide was fused to the VP16 activation domain from herpes simplex virus (Fields 1993 Methods 5, 116–124) and used in transient transfection assays (FIG. 9) to drive production of a CAT (chloramphenicol acetyl transferase) reporter gene from a binding site upstream of the TATA box (Gorman et al., Mol. Cell. Biol. 2, 1044–1051). In detail the experiment was performed thus: reporter plasmids pMCAT6BA, pMCAT6A, and pMCAT6B, were constructed by inserting 6 copies of the p190^BCR-ABL target site ([…], SEQ ID No. 121), the c-ABL second exon-intron junction sequence ([…], Seq ID No. 122), or the BCR first exon-intron junction sequence ([…] Seq ID No. 123) respectively, into pMCAT3 (Luscher et al., 1989 Genes Dev. 3, 1507–1517). The anti-BCR-ABL/VP16 expression vector was generated by inserting the in-frame fusion between the activation domain of herpes simplex virus VP16 (Fields 1993) and the Zn finger peptide in the pEF-BOS vector (Mizushima & Shigezaku 1990 Nucl. Acids Res. 18, 5322). C3H10T1/2 cells were transiently co-transfected with […] of reporter plasmid and […] of expression vector. […]

The source of these data is patent publication US6013453, “Binding proteins for recognition of DNA” (Medical Research Council).

B1: p190 BCR-ABL site x6 reporter pMCAT6BA (dsDNA)
DNA 1: CGCAGAAGCC
DNA 2: GGCTTCTGCG
Take B1: the activity was ~30 fold CAT activation.
